This passage reports Kd results from paper PMC8582233.

The target of the assay is Recombinant SARS-CoV-2 S trimer (SARS-CoV-2) (UniProt P0DTC2). Briefly: MST.

As to “Recombinant DC-SIGN/CD209 (from UniProt Q9NNX6 1-404) (receptor)”, the Kd came to 28.8 nM.
As to “Recombinant L-SIGN/CD299 (from UniProt Q9H2X3 1-399) (receptor)”, the equilibrium dissociation constant (Kd) stood at 43.7 nM.
